Assays:
[1] = biological target: SUZ12(N);RBBP4;MTF2 full-length (Homo sapiens;Homo sapiens;Homo sapiens?, UniProt Q15022;Q09028;Q9Y483 76-545;1-425;1-593, ||); experiment: EMSA
[2] = biological target: SUZ12(N) 3D;RBBP4;MTF2 full-length (Homo sapiens;Homo sapiens;Homo sapiens?, UniProt Q15022;Q09028;Q9Y483 76-545;1-425;1-593, K195D;R196D;K197D||); experiment: EMSA
Chain of SUZ12(N) 3D;RBBP4;MTF2 full-length (Q15022 76-545 K195D/R196D/K197D, chain 1 of 3): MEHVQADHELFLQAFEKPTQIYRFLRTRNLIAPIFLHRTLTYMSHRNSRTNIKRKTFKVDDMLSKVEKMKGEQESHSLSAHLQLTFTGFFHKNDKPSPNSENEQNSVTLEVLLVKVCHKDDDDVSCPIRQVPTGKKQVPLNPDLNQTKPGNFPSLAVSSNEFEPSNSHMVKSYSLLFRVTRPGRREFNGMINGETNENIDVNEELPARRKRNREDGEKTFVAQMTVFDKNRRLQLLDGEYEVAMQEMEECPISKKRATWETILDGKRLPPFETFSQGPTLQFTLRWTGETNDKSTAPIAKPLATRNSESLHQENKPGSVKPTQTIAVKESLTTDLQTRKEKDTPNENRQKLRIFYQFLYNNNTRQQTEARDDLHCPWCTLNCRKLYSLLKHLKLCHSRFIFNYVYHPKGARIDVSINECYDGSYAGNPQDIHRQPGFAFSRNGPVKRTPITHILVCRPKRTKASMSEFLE
Chain of SUZ12(N) 3D;RBBP4;MTF2 full-length (Q09028 whole entry, chain 2 of 3): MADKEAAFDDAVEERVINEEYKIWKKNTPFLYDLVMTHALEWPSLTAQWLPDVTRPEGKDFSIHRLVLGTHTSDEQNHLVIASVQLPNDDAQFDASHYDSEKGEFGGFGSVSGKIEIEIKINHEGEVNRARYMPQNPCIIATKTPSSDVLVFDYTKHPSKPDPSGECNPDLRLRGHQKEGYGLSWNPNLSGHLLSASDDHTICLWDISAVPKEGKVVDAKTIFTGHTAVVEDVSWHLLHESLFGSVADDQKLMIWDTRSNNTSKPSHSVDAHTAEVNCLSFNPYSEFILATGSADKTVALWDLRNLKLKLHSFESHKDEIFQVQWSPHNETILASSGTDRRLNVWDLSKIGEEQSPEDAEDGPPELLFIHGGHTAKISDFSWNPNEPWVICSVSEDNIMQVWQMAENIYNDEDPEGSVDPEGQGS
Chain of SUZ12(N) 3D;RBBP4;MTF2 full-length (Q9Y483 whole entry, chain 3 of 3): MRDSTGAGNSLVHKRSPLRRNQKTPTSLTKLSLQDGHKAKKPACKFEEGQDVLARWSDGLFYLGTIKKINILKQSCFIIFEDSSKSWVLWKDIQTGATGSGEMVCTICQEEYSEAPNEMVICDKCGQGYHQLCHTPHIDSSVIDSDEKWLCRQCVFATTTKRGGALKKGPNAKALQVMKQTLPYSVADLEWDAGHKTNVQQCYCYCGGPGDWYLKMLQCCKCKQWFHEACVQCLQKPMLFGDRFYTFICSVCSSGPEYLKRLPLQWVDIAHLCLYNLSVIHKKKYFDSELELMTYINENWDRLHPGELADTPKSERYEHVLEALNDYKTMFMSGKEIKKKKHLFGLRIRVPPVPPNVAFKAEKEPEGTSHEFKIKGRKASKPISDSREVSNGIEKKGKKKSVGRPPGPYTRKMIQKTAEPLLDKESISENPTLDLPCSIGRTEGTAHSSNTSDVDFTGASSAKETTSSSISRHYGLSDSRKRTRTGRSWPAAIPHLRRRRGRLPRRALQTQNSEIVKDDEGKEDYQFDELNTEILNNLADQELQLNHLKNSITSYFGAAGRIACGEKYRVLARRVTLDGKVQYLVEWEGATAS

Chain of SUZ12(N);RBBP4;MTF2 full-length (Q15022 76-545, chain 1 of 3): as the sequence (Q15022 76-545 K195D/R196D/K197D, chain 1 of 3) above, with D120K, D121R, D122K counted along it
Chain of SUZ12(N);RBBP4;MTF2 full-length (Q09028 whole entry, chain 2 of 3): as the sequence (Q09028 whole entry, chain 2 of 3) above
Chain of SUZ12(N);RBBP4;MTF2 full-length (Q9Y483 whole entry, chain 3 of 3): as the sequence (Q9Y483 whole entry, chain 3 of 3) above

B1: CGI-LHX6 100 bp (dsDNA)
DNA 1: GTGGTGGTGGTGGTTGAGAAAATAAAACCCAGAGCGCTAGGAGCATCCGCCCGCTCGACGCGCGCCGGGAAATTGAAGCGGGGATATTGACACCGATTCA
DNA 2: TGAATCGGTGTCAATATCCCCGCTTCAATTTCCCGGCGCGCGTCGAGCGGGCGGATGCTCCTAGCGCTCTGGGTTTTATTTTCTCAACCACCACCACCAC
- Kd [1]: 17.6 nM
- binding signal [2]: > 25 fold weaker than WT

From paper PMC7571800
